T1: PUF-R6(SYxxR) purified (Homo sapiens, UniProt Q14671 Q14671:828-1176, N1043S/Q1047R)
T1 sequence: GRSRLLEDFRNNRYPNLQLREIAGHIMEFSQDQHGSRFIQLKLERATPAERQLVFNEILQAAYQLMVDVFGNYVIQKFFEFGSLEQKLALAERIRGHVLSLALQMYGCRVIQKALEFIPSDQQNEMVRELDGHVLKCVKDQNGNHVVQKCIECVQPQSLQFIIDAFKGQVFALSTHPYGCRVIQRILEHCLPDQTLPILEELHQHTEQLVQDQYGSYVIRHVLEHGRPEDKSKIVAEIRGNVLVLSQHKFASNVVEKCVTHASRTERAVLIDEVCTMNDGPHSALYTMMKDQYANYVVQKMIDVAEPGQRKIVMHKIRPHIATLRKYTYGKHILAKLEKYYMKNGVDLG


Columns and labels:
PUF-R6(SYxxR) purified [1] = target: T1, PUF-R6(SYxxR) purified; experiment: EMSA; 0.2 uM protein, 1 nM biotinylated RNA, 1 mM MgCl2, room temperature
Method: Protein concentration was determined by Bradford assay. RNAs were generated by in vitro transcription and purified on denaturing gels. 50 pmol of RNAs were labeled at the 3′ end with biotinylated cytidine bisphosphate using T4 RNA ligase following manufacturer's directions (Thermo Scientific Pierce RNA 3′ End Biotinylation Kit). In each sample, 20 fmol of labeled RNA (1 nM) and 4 pmol of proteins (0.2 μM) were incubated in binding buffer (10 mM HEPES, pH 7.3, 20 mM KCl, 1 mM MgCl₂, 1 mM DTT, and 0.1 g/L tRNA) for 1 hour at room temperature. The binding reactions were separated by electrophoresis on 6% nondenaturing PAGE run with 1×TBE at 4° C., transferred to nylon membranes, and crosslinked to the membrane by UV. Biotin-labeled RNA was detected by chemiluminescence using the Thermo Scientific LightShift Chemiluminescent RNA EMSA Kit following manufacturer's directions.

PUF-R6(SYxxR) purified [2] = target: T1, PUF-R6(SYxxR) purified; experiment: structure; PDB 2yjy
Method: Crystals of PUF-R6(SYxxR) mutant and C3 RNA (5′-[…]) were grown by sitting drop vapor diffusion. RNA oligonucleotide was obtained from Dharmacon (Lafayette, Colo.). The protein-RNA complex was prepared by mixing a 1:1.1 molar ratio of purified protein (3.5 mg/ml) and RNA in a buffer containing 20 mM Tris-HCl, pH 7.5; 100 mM NaCl; and 1 mM DTT. One μl of complex solution was added to 1 μl of a well solution containing 30% PEG 3350, 0.2M ammonium tartrate dibasic, and 0.1M bis-Tris, pH 5.5. Crystals were flash frozen after adding an equal volume of cryoprotectant solution (32% PEG 3350, 20% ethylene glycol) to the drop. Diffraction data were collected at the SER-CAT beamline ID-22, Advanced Photon Source at wavelength 1.0 Å and −180° C. All data sets were indexed, integrated, and scaled with the HKL2000 suite (21). The structure was determined by molecular replacement using the structure of human Pumilio1 (PDB ID: 1M8Y) as a search model with PHASER (22). Two complexes are present in the asymmetric unit. Iterative model building was performed with COOT (23), and the resulting models were refined with PHENIX (24). All Phi-Psi angles are within allowable regions of the Ramachandran plot. The atomic coordinates and structure factors have been deposited in the Protein Data Bank (PDB ID: 2yjy).

Row | Binder | binding result (PUF-R6(SYxxR) purified [1]) | binding result (PUF-R6(SYxxR) purified [2])
1 | UGCAUAUA (ssRNA) [C3 RNA] | binds | 
2 | AUUGCAUAUA (ssRNA) [C3 RNA crystallization 10-mer] |  | binds

— US20130129701, “Methods and Compositions for Sequence Specific RNA Endonucleases” (published 2013)
